Assay: yeast display, Sf9 membrane polyspecificity reagent, FACS + sequencing; frameworks hold sequencing errors
How it was run: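 In a synthetic yeast display library (Saccharomyces cerevisiae BJ5465), nanobody expression was induced with galactose for 36–48 hours. FACS gates were set low and high (top ~1%) using anti-HA fluorescence for expression and streptavidin fluorescence for binding of the Sf9 membrane reagent. Each polyreactivity label is drawn from the gate of origin.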

Sequence: QVQLVESGGGLVQAGGSLPLSCAASGSTFSYYAMGWYRQAPGKERELVAAITSGGSTYYADSVKGRFTISRDNAKNTVYLQMNSLKPEDTAVYYCNAEPYTSSGGYRAYDFDYWGQGTQVTVSS
- polyreactivity (PSR sort gate): low polyreactivity

Sequence: QVQLVESGGGLVQAGGSLRLSCAASGSTFKVYTMGWYRQAPGKERELVAAITGGGGSTYYADSVKGRFTISRDNAKNTVSLQMNSLKPEDTAVYYCAAQKRGPGYPYYYWGQGTQVTVSS
- polyreactivity (PSR sort gate): high polyreactivity

Sequence: QVQLVESGGGLVQAGGSLRLSCAASGRIYRNAMGWYRPAPGKERELVAAISSRGASTYYADSVKGRFTITRDNAKNTVYLQMNSLKPEDTAVYYCAARTSSSSGYYAREYWGQGTQVTVSS
- polyreactivity (PSR sort gate): high polyreactivity

Sequence: QVQLVESGGGLVQAGGSLRLSCAASGSIFGGYAMGWYRQAPGKERELVAAISRSGASTYYADSVKGRFTISRDNAKNTVYLQMNSLKPVDTAVYYCAAYALRGVRYPYRVDFYYWGQGTQVTVSS
- polyreactivity (PSR sort gate): high polyreactivity

Sequence: QVQVVESGGGLDQAGGSLGLSCAASGSIFIKYAMGWSRQAPRKERELVAAISRRGGSPYYADSVKGRFTISRDNAKNTVYLQMISLKPEDTAVYYCAAVNISFGYADRFYYVYRGDYWGQGTQVTVSS
- polyreactivity (PSR sort gate): high polyreactivity

Sequence: QVQLVESGGGLVQAGRSLRLSCAASVFTFYHYAMGWYRQAPGKVRELVAAISNSGVSTYYADSVKGRFTISRDNAKITVYLQLNSLKPEDTAVYYCNAVYQSYHISGDDYWGQGTQVTVSS
- polyreactivity (PSR sort gate): high polyreactivity

Sequence: QVQLVESGGGLVQAGGSLRLSCAASGRIFRGYGMGWYRQAPGKERELVAAITSRGGSTYYADSVKGRFTISRDNAKYTVYLQMNSLKPEDTAVYYCNRDFNHRPLQSPKRPPKLGYWGQGTQVTVSS
- polyreactivity (PSR sort gate): high polyreactivity

Sequence: QVQLVESGGGLVQAGGSLRLSCAASGFIFRRYAMGWYRQAPGKERELVAVIRSSGGSTYYADSVKGRFTISRDNAKNTVYLQMNSLKPEDTAVYYCAAVDARSGGYYWTLRYYYWGQGTQVTVSS
- polyreactivity (PSR sort gate): high polyreactivity

Sequence: QVQLVESGGGLVQAGGSLRLSCAASGSIFDVYAMGWYRQAPGKERELVATISNSAGSTYYADSVKGRFTISRDNAKNTVYLQMNSLKPEDTAVYYCAAVVVYFDEYDYWGQGTQVTVSS
- polyreactivity (PSR sort gate): low polyreactivity

Sequence: QVHLVESGGGLVQAGGSLRLSCAASGSIFGPYMGWYRQAPGKERELVASVVSTYYADSVKGRFTISRDNAKNTVYLQMNSLKPEYTAVYYCNTQDTKNKSSVFVPSDYWGQGTQVTVSS
- polyreactivity (PSR sort gate): low polyreactivity

Sequence: QVQLVESGGGLVQAGGSLRLSCAASGSIFYDKAMGRYRQAPGKEREFVAAISLRTGRTYYADSVKGRFTISRDNAKNTVYLQMNSLKPEDTAVYYCAARGYYGPKYYYWGQGTQVTVSS
- polyreactivity (PSR sort gate): high polyreactivity

Sequence: QVQLVESGGGLVQAGGSLRLSCAASGSIFYWYAMGWYRQAPGKEREFVAGITGRGGSTYYADSVKGRFTISRDNAKNTVYLQMNSLKPEDTAVYYADFVKYGKYYQRYDYWGQGTQVTVSS
- polyreactivity (PSR sort gate): high polyreactivity

Sequence: QVQLVESGGGLVQAGGSLRLSSAASGSTIGGYAMGWYRQAPGKERELVAAITRSGGRTYYADSVKGRFTISRDNSKNTVYLQMNSLKPEDTAVYYCATLVTIGRYDSWGQGTQVTVSS
- polyreactivity (PSR sort gate): high polyreactivity

Sequence: QVQLVESGGGLVQAGGSLRLSCAASGITFVYYAMGWYRQAPGKDRELVAAITSTGGSTYYADSVKGRFTISRDNAKNTVYLQMNSLKPEDTAVYYCAAVPRGTQGAMDYWGQGTQVTVSS
- polyreactivity (PSR sort gate): low polyreactivity

Sequence: QVQLVESGAGLVQAGGRLRLSCAATGLTFYFYVMGWYRQAPGKERELVADISTSDDSTYYADSVKGRFTISRDNAKNTVYLQMNSLKPEDTSVYYCATATRTYSAWYEYDYWGQVTQVTVSS
- polyreactivity (PSR sort gate): low polyreactivity

Sequence: QVQLVESGGGLVQAGGSLRLSCAASGSIFLGYVMGWSRQAPGKERELVAAITNSGGSTYYADSVKGRFTISRDNAKNTVYLQINSLKPEDTAVYYCAADSITSKNQGLDYDYWGQGTQVTVSS
- polyreactivity (PSR sort gate): low polyreactivity

Sequence: QVQLVESGGGLVQAGGSLRLSCAASGRIFTNYAMGWYRPAPGKEREYVAAISWSGGSTYYADSVKGRFTISRDNAKNTVYLQMNSLKPEYTAVYYCAAVGYAGLPYGLRPNNSGYWGQGTQVTVSS
- polyreactivity (PSR sort gate): low polyreactivity

Sequence: QVQLVESGGGLVQAGGSLRLSCAASGRIFYQNAMGWYRQAPGKERELVAAISRGDSTYYADSVRGRFTSSRDNAKNTVFLQMNSLKPEDTAVYYCAARRFSYWGKYGYWGQGTQVTVSS
- polyreactivity (PSR sort gate): high polyreactivity

Sequence: QVQLVESGGGLVKAGGSLSLSCAASGFIFVNNVMGWYRQAPGKERELVAAISRRGGSTYYADSVKGRFTISRDNAKNTVYLQMNSLKPEDTAVYYCARRGPDFSWKYDYWGQGTQVTVSS
- polyreactivity (PSR sort gate): high polyreactivity

Sequence: QVQLVESGGGLVQAGGSLRLSCAASGFNFGSNAMGWYRQAPGKERELVAAITYSGASTYYADSVKGRFTISRDNAKNTVYLQMNSLKPEDTAVYSCAADLTSYYGGDYWGQGTQVTVSS
- polyreactivity (PSR sort gate): low polyreactivity

Sequence: QVQLVESGGGLVQAGGSLRLSCAASGLTFADYAMGWYRKAPGKERELVAAISRRGGSTYYADSVKGRFTISRDNAKNTVYLQMNSLKPEDTAVYYCNAAYVYGDQARGGYWGQGTQVTVSS
- polyreactivity (PSR sort gate): high polyreactivity

Sequence: QVQLVESGGGLVQAGGSLRLSCAASGSIFPHYAMGWYRQSPGKETELVAAISRSGTSTYYADSVKGRFTISRDNAKNTVYLQMNSLKPEDTAVYYCAALSNNGVRYYYWGQGTQVTVSS
- polyreactivity (PSR sort gate): high polyreactivity

Sequence: QVQLVESGGGLVQAGGSLRLSCAASGSIFKAYAMGWYSQAPGKERELVAAITWSGGSTYYADSVKGRFTISRDNAKYTVYLQMNSLKPEDTAVYYCAADRLEGYYEDDATGFDYWGQGTQVTVSS
- polyreactivity (PSR sort gate): low polyreactivity

Sequence: QVQLVESGGGLVQAGCSLRLSCAASGSIFTNYGMGWYRQAPGKERELVADIRARSGSTYYADSVKGRFTISRDNAKNTVYLQMNSLKPEDTAVYYCAARRTSYRFDYSAGYRYGYWGQGTQVTVSS
- polyreactivity (PSR sort gate): high polyreactivity

Sequence: QVQLVESGGGLVQAGGSLRLSCAASGSTFGRNAMGWYRQAPGKERELVAASNWSDGSTHYADSVKGRFTISRDNAKNTVYLQMNSLKPEDTAVYYCAADAWSWPVDYNYWGQGTQVTVSS
- polyreactivity (PSR sort gate): low polyreactivity

Sequence: QVQLVESGGGLVQAGGSLRLICAASGRTIRYYAMGWYRQAPGKERELVAAITQNGGRTYYADSVKGRFTISRDNAKNTVYLQMNSLKPEDTAVYYCAKAFIQPGDKYDSWGQGTQVTVSS
- polyreactivity (PSR sort gate): high polyreactivity

Sequence: QVQLVDSGGGLVQAGGSLRLSCASSGRIFSEYAMGWYRQAPGKERELVAAISRRGGRTYYADSVKGRFTISRDNAKNTVYLQMNSLKPEDTAVYYCAADHGDPGGYDYWGQGTQVTVSS
- polyreactivity (PSR sort gate): high polyreactivity

Sequence: QVQLVESGGGLVQAGGSLRLSCAASGSTFSRYAMGWYRQAPGKERELVAAISWGGNTYYADSVKGRFTISRDNAKNTVYFQMNSLKPEDTALYYCATEVRYQGWRDYWGQVTQVTVSS
- polyreactivity (PSR sort gate): high polyreactivity

Sequence: QVQLVESGGGLVQAGGSLRLSCAASGSIFRHNVMGWYRQAPGKERELVAAISGGGGRTYYADSVKGRFTISRDNAKNTVYLQMNSLKPEDTAVYYCNAYVGLSEGDYWGQGTQVTVSS
- polyreactivity (PSR sort gate): high polyreactivity

Sequence: QVQLVESGGGLVQAGGSLRLSCAASGLTSDYNAMGWYRQAPGKERELVAAISSGGRTYYADSVKGRFTISRDNAKNTVYLQMNSLKPEDTAVYYCAAEFRVLRGYQYDYWGQGTQVTVSS
- polyreactivity (PSR sort gate): high polyreactivity

Sequence: QDQLVESGGGLVQAGGSLRLSCAASGRTYGSYAMGWYRQAPGQEMELVAAISRSDGSTYYADSVKGRFTISRDNAKNTVYLQMNSLKPEDTAVYYCAAKRWYVSYDYDYWGQGTQVTVSS
- polyreactivity (PSR sort gate): high polyreactivity

Sequence: QVQLVESGGGLVQAGGSLRLSCAASGSTFGPYAMGWYRQAPGKEREFVAGISKSTSSTYYADSVKGRFTISRDNAKNTVYLQMNSLKPEDTAVYYCAAQGGRNRGYRYYWGQGTQVTVSS
- polyreactivity (PSR sort gate): high polyreactivity

Sequence: QVQLVESGGGLVQAGGSLRLSCAASGRIFVDYAMGWYRQAPGKERELVAAIRSSGGSTYYADSVKGRFTISRDNAKNTVYLQMNSLKPEDTAVYYCNTPKYLRASSGYNYWGQGTQVTVSS
- polyreactivity (PSR sort gate): high polyreactivity

Sequence: QVQLVESGGGLVQAGGSLRLSCAASGGIFVRNAMLWYRQAPGKERELVAAISDTGGSTYYADSVKGRFTISRDNAKNTVYLQMNSLKPEDTAVYYCAADLSPEADDYDVGGWRFRYDYWGQGTQVTVSS
- polyreactivity (PSR sort gate): low polyreactivity

Sequence: QVQLVESGGGLVQAGGSLRLSCAASGSIFGQYAMGCYRQAPGKERELVATISSSGGSTYYADSVKGRFTISRDNAKNTVYLQMNSLKPEDTAVYYCAADWTLDPSYGYYADDYWGQGTQVTVSS
- polyreactivity (PSR sort gate): low polyreactivity

Sequence: QVQLVESGGGLVQAGGRLRISCAASGSIFKGYARGWSRQGPGKERELVAAISGSGTSTYYADSVKGRFTISRDNAKNTVYLQMNSLTPEDTAVYYCATGWYTVFSRRMYSWGQGTQVTVSS
- polyreactivity (PSR sort gate): high polyreactivity

Sequence: QVQLVESGGGLVQAGGSLRLSCAASGRIFRRYAMGWYRQAPGKEREFVAAITDGSTYYADSVKGRFTISRDNAKNTVYLQMNSLKPEDTAVYYCATQYGWSYSRRFYYWGQGTQVTVSS
- polyreactivity (PSR sort gate): high polyreactivity

Sequence: QDQLVESGGGLVQAGGSLRLSCAASGSIFVYNTMGWYRQAPGKERELVAAISSSGGSTYYADSVKGRFTISRDNAKNTVYLQMNSLKPEDTAVYYCAAVNGYQYAPYYYNGYDFWGQGTQVTVSS
- polyreactivity (PSR sort gate): low polyreactivity

Sequence: QVQLVESGGGLVQAGGSLRLSCAASGFTIDGYAMGGYRQAPGKERELVAAISGGGSTYYADSVKGRFTISRDNAKNTVYLQMNSLKPEDTAVYYCAAARITRGRRYDYWGQGTQVTVSS
- polyreactivity (PSR sort gate): high polyreactivity

Sequence: QVQLVESGGGLVQAGGSHRLSCAASGFTFSAYTMGWYRQAPGKERELVAAISWRGTSTYYADSVKGRFTISRDNAKNTVYLQMNSLKPEDTAVYYCAVRWPSARIPVKLDYWGQGTQVNVSS
- polyreactivity (PSR sort gate): high polyreactivity

Sequence: QVQLVESGGGLVQAGGSLPLSCAASGSIFKPYAMGWYRQAPGKERELVAVISWRGGSTYYADSVKGRFTISRDNAKNTVYLQMNSLKPEDTAVYYCAARRYRYFDGTVPLDYWGQGTQVTVSS
- polyreactivity (PSR sort gate): high polyreactivity

Sequence: QVQLVESGGGLVQAGGSLRLSCAASGRIIYKNAMGWYRQAPGKETELVAAINSSGGSTYYGDSVKGRFTISRDNAKNTVYLQMNCLKPEDSAVYYCAAYDYGRFGKLNYWGQGSQVTVSS
- polyreactivity (PSR sort gate): low polyreactivity

Sequence: QVQLVESGGGLVQAGGSLRLSCAASGSIFWLYAMGWYRQATGKERELVAAINWTGGSTNYADSVKGRFTISRDNAKNTVYLQMNSLKPEDTAVYFCAAEGVPDALDRVYWGQGTQVTVSS
- polyreactivity (PSR sort gate): low polyreactivity

Reference: the nanobody polyreactivity screen of Harvey et al. (2022)
